Experimental findings from the nanobody polyreactivity screen of Harvey et al. (2022) are described below.

The data set is described as follows: yeast display, Sf9 membrane polyspecificity reagent, FACS + sequencing; frameworks hold sequencing errors. The procedure, abridged: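 A synthetic nanobody library was expressed on Saccharomyces cerevisiae BJ5465 by galactose induction for 36–48 hours. The library was stained for 1 hour at 4 °C with 10% biotinylated, detergent-solubilized Sf9 membrane reagent and enriched with streptavidin microbeads before FACS. Low and high (top ~1%) gates were set on anti-HA fluorescence for expression and streptavidin fluorescence for reagent binding, and each polyreactivity label reflects the gate of origin.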
Turning to “QVQLVESGVGLVQAGGSLRLSCAASGLIFYHNAMGWYRQAPGKERELVAAISRSGGRTYYADSVKGRFTISRDNAKNTVYLQMNSLKPEDSAVYYCAVYRSSDFDYWGQGTQVTVSS”, the “polyreactivity (PSR sort gate)” value is reported as “high polyreactivity”.
On to “QVQLVESGGCKVQAGGSLRISCAASGRIFGYYMGWYRQAPGKEREMVARITFRGGSTYYADSVKGRFTNSRDNAKNNVYLQMNSLKPEDTAVYYCNARGKGGSTNRSDYWGQGTQVTVSS”, for which the “polyreactivity (PSR sort gate)” value is given as “high polyreactivity”.
In the case of “QVQLVESGGGLVQAGGSLRLSCAASGRTFYFNAMGWYRQAPRKESELVAAISSGASTYYADSVKGRFTISRDNAKNTVNLQMISLKPEDTAVYYCAAEFWTQWSGYEYWGQGTQVTVSS”, the “polyreactivity (PSR sort gate)” value is listed as “high polyreactivity”.
The value for “QVQLVESGGGVVQAGGSLRLSCAASGLIFSPYAMGWYRPAPGKERELVAVITRSGGRTYYADSVKGRFTISRDNAKNTVYLQMNSLKPEDTAVYYCAATPKSWSSSTRDYWGQGTQVTVSS” was “high polyreactivity”; that for “QVQLVESGGGLLQAGGSLRLSCAASGRIFGSYAMGWYRPAPGKERELVAAINWRGGSTFYADSVKGRFTISRDNAKNTVYLQMNSLKPEDTAVYYCARRGYRQSGDYWGQGSQVTVSS” was “low polyreactivity”.
Consider “QVQLVESGGGLVQAGGRLRLSCAASGRTFTYFAMGWYRKAPGKERELVAAISWDDDSTYYADSVKGRFTISRDYAKNTVYLQMNSLKPEDTAVYYCAASYYRQSGEYDYWGQGTQVTVSS”, for which the “polyreactivity (PSR sort gate)” value is listed as “low polyreactivity”.
Take “QVQLVESGGGLVQAGGSLRLSCAASGSTFYNNAMGWYRQAPGKEREFVAAITLSGGRTYYADSVKGRFTISRDNAMNTVYLQMNSLKPEDTAVYYCAAKGTRRGKERNYWGQGTQVTVSS”: the “polyreactivity (PSR sort gate)” value is reported as “high polyreactivity”.
In the case of “QVQLEESGGGLVQAGGRLRLSCAASVSIFGVYTMGWYRPAPGKERELVAAIRGVGSTNYADSVKGRFTISRDNAKNTVYLQMKSLKTEDTAVYYCAARYAYGMWGQGTHVTVSS”, the “polyreactivity (PSR sort gate)” value is on record as “low polyreactivity”.
With “QVQLVESGGGLVQAGGSLRLSCAASGLTFWRYTMGWYRHAPGKERELVATIRRGTSTNYADSVKGRFTISRDNAKNTVYLQMNSLKPEDTAVYYCAAVPWRYYVEYDYWGQGTQVTVSS” the entry was “high polyreactivity”.
Consider “QVQLVESGGGLVPAGGSLRLSCAASGRTFPYYDMGWYRQAPGKERELVAAITSGGTTNYADSVKGRFTISRDNAKNTVYLQMNSLKPEDTAVYYCAAGSPWYYFSSYGYWGQGTQVTVSS”, for which the “polyreactivity (PSR sort gate)” value is listed as “low polyreactivity”.
With “QVQLVESGGGLVQAGGSLRLSCAASGLIFVRYAMGWYRQAPGKERELVATITWSGGTTYADSVKGRFTISRDNAKNTVYLQMNSLKPEDTAVYYCAVEWPAWTDSDYPVGGHAFGYWGQGTQVTVSS”, the “polyreactivity (PSR sort gate)” value is listed as “low polyreactivity”.
“QVQLVESGGGLVQAGGSLRLSCAASGITFSFYVMGWDRQAPRKERELVAAISRGGSTYYADSVKGRFTISRDNAKNTVYLQMNSLKPEDTAVYYCAAVRLSRVYYWGQGTQVTVSA”: the “polyreactivity (PSR sort gate)” value is “high polyreactivity”.
Turning to “QVQLVESGGGLVQAGGSLRLSCAASGRTSRYYAMGWYRQAPGKERELVATITRGGTTNYADSVKGRFTISRDNAKNNVYLQMNSLKPEDTAVYYCNKVFRAPGVSDYGYWGQGTQVTVSS”, the “polyreactivity (PSR sort gate)” value is listed as “high polyreactivity”.
Take “QVQLQESGGGMVQAGGSLLSCAASGTISYYREMGWYRQAPGKERELVAGIGVGTITYYADSVKGRFTIIRDNAKNTVYLQMNSLKPEDTAVYYCAAHIDGNDYHAYWGQGTQVTVSS”: the “polyreactivity (PSR sort gate)” value is “low polyreactivity”.
With “QVQLVESGGGLVQAGGSLRLSCAASGRTFQFYAMGWYRKAPGKEREFVAAIDLRGGSTYYADSVKGRFTISRDNAKNRVYLQMNSLKPEDTAVYYCNATRSKFGYFYRYDYWGQGTQVTVSS”, the “polyreactivity (PSR sort gate)” value was “low polyreactivity”.
As for “QVHLVESGVGLVQAGGSLRLSCAAYGYTFTRNAKGWSRQAPGKERELVAAISKRGGTTYYADSVKGRFTISRDNEKYSVYLQMNSLKPEDTAVYYCAKDGGITGGYWGQGTQVTVSS”, the “polyreactivity (PSR sort gate)” value was “high polyreactivity”.
